Measurements reported in article PMC2738593 (Nature methods, 2009).
Where two headings read alike, the source gives them in different places.

Experiments:
crystal structure [1] = target: the molecule itself; assay: crystal structure
crystal structure [2] = target: the molecule itself; assay: crystal structure; remark: listed apart in the source

Protein	stoichiometry N (crystal structure [1])	stoichiometry N (crystal structure [2])
cysteine-less HCN2I fragment (carboxyl-terminal region of mouse HCN2, C-linker and CNBD, residues 443-640) (domain or fragment, UniProt O88703 443-640, looked up) DSSRRQYQEKYKQVEQYMSFHKLPADFRQKIHDYYEHRYQGKMFDEDSILGELNGPLREEIVNFNNRKLVASMPLFANADPNFVTAMLTKLKFEVFQPGDYIIREGTIGKKMYFIQHGVVSVLTKGNKEMKLSDGSYFGEISLLTRGRRTASVRADTYSRLYSLSVDNFNEVLEEYPMMRRAFETVAIDRLDRIGKKN	4	–
wild-type mouse HCN2I construct (carboxyl-terminal fragment of HCN2, C-linker and CNBD, residues 443-640) (domain or fragment, UniProt O88703 443-640, looked up) DSSRRQYQEKYKQVEQYMSFHKLPADFRQKIHDYYEHRYQGKMFDEDSILGELNGPLREEIVNFNCRKLVASMPLFANADPNFVTAMLTKLKFEVFQPGDYIIREGTIGKKMYFIQHGVVSVLTKGNKEMKLSDGSYFGEICLLTRGRRTASVRADTYCRLYSLSVDNFNEVLEEYPMMRRAFETVAIDRLDRIGKKN	–	4
